From the RNAGym collection of RNA variant scans (doi:10.1073/pnas.2313332121)

B1: TPR t1 (parent)
chain: GACCAAUCUGCCCUCAGAGCUCGAGAACAUCUUCGGAUGCAGAGGAGGCAGGCUUCGGUGGCGCGAUAGCGCCAACGUCCUCAACCUCCAAUGCAUCCCACCACAUGAUGAUGCCUGAAGAGCCUUGGUUUUUUG

Variants of: B1
Test: polymerase ribozyme fitness, log enrichment relative to wild type (log ratio); higher = more active; in vitro selection for triplet polymerase activity
Summary of the method: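 Input and output libraries were sequenced on Illumina after a single in vitro selection round, run in triplicate on PCR-built, transcribed mutant libraries of each subunit of a heterodimeric triplet polymerase ribozyme. Selection annealed libraries to a biotinylated primer, the partner subunit and triplets, incubated them frozen at −7 °C, then gel-excised extended constructs for streptavidin-bead capture and RT-PCR. Genotypes with ≥10 input reads and ≥1 read per output were kept. Fitness is the logarithm, taken in base 2, of genotype enrichment divided by wild-type enrichment, using inverse-variance-weighted replicate averages.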

| Variant | polymerase ribozyme fitness (log ratio) |
| --- | --- |
| GACCAAUCUGCCCUCAGAGCUCGAGAACAUCUUCGGAUGCAGAGGAGGCAGGCUUCGGUGGCGCGAUAGCGCCAACGUCCUCAACCUCUAAUGCAUCCCACCACAUGAUGAUGCCUGAAGGGCCUUGGUUUUUUG [C89U A121G] | -0.907 |
| GACCAAUCUGCCCUCAGAGCUCGAGAACAUCUUCGGAUGCAGAGGAGGCAGGCUUCGGUGGCGCGAUAGCGCCAACGUCCUCAACCUCUAAUGCAUGCCACCACAUGAUGAUGCCUGAAGAGCCUUGGUUUUUUG [C89U C97G] | -5.4 |
| GACCAAUCUGCCCUCAGAGCUCGAGAACAUCUUCGGAUGCAGAGGAGGCAGGCUUCGGUGGCGCGAUAGCGCCAACGUCCUCAACCUCUAAUGCAUUCCACCACAUGAUGAUGCCUGAAGAGCCUUGGUUUUUUG [C89U C97U] | -0.579 |
| GACCAAUCUGCCCUCAGAGCUCGAGAACAUCUUCGGAUGCAGAGGAGGCAGGCUUCGGUGGCGCGAUAGCGCCAACGUCCUCAACCUCUAAUGCAUCCCACCACAUGAUGAUGCCUGAAGAGUCUUGGUUUUUUG [C89U C123U] | 0.813 |
| GACCAAUCUGCCCUCAGAGCUCGAGAACAUCUUCGGAUGCAGAGGAGGCAGGCUUCGGUGGCGCGAUAGCGCCAACGUCCUCAACCUCUAAUGCAUCCCACCACAUGAUUAUGCCUGAAGGGCCUUGGUUUUUUG [C89U G110U A121G] | -1.62 |
| GACCAAUCUGCCCUCAGAGCUCGAGAACAUCUUCGGAUGCAGAGGAGGCAGGCUUCGGUGGCGCGAUAGCGCCAACGUCCUCAACCUCUAAUGCAUCCCACCACAUGAUGAUUCCUGAAGAGCCUUGGUUUUUUG [C89U G113U] | -3.66 |
| GACCAAUCUGCCCUCAGAGCUCGAGAACAUCUUCGGAUGCAGAGGAGGCAGGCUUCGGUGGCGCGAUAGCGCCAACGUCCUCAACCUCUAAUGCAUCCCACCACAUGAUGAUGCCUGAAGAGCCUUGCUUUUUUG [C89U G128C] | -3.21 |
| GACCAAUCUGCCCUCAGAGCUCGAGAACAUCUUCGGAUGCAGAGGAGGCAGGCUUCGGUGGCGCGAUAGCGCCAACGUCCUCAACCUCUAACGCAUCCCACCACAUGAUGAGGCCUGAAGAGCCUUUGUAUUUUG [C89U U92C U112G G127U U130A] | -3.09 |
| GACCAAUCUGCCCUCAGAGCUCGAGAACAUCUUCGGAUGCAGAGGAGGCAGGCUUCGGUGGCGCGAUAGCGCCAACGUCCUCAACCUCUAAGGCAUCCCACCACAUGAUGAUGCCUGAAGAGCCUUGGUUUUUUG [C89U U92G] | -1.82 |
| GACCAAUCUGCCCUCAGAGCUCGAGAACAUCUUCGGAUGCAGAGGAGGCAGGCUUCGGUGGCGCGAUAGCGCCAACGUCCUCAACCUCUAAUGCAUCCCACCACAUGAUGAUGCCUGAAGAGCCUCGGUUUUUUG [C89U U126C] | -1.11 |
| GACCAAUCUGCCCUCAGAGCUCGAGAACAUCUUCGGAUGCAGAGGAGGCAGGCUUCGGUGGCGCGAUAGCGCCAACGUCCUCAACCUCUAAUGCAUCCCACCACAUGAUGAUGCCUGAAGAGCCUUGGUUUUGUG [C89U U133G] | -0.403 |
| GACCAAUCUGCCCUCAGAGCUCGAGAACAUCUUCGGAUGCAGAGGAGGCAGGCUUCGGUGGCGCGAUAGCGCCAACGUCCUCAACCUCCCAUGCAUCCCAACACAUGAUGAUGCCUGAAGAGCCUUGGUUUUUUG [A90C C101A] | -2.32 |
| GACCAAUCUGCCCUCAGAGCUCGAGAACAUCUUCGGAUGCAGAGGAGGCAGGCUUCGGUGGCGCGAUAGCGCCAACGUCCUCAACCUCCCAUGCAUCCCACCAUAUGAUGAUGCCUGAAGAGCCUUGGUUUUUUG [A90C C104U] | -0.65 |
| GACCAAUCUGCCCUCAGAGCUCGAGAACAUCUUCGGAUGCAGAGGAGGCAGGCUUCGGUGGCGCGAUAGCGCCAACGUCCUCAACCUCCCAUGCAUCCCACCACAUGAUGAUGUCUGAAGAGCCUUGUUUUUUUG [A90C C114U G128U] | -4.34 |
| GACCAAUCUGCCCUCAGAGCUCGAGAACAUCUUCGGAUGCAGAGGAGGCAGGCUUCGGUGGCGCGAUAGCGCCAACGUCCUCAACCUCCCAUGCAUCCCACCACAUCAUCAUGCCUGAAGAGCCUUGGUUUUUUG [A90C G107C G110C] | -6.73 |
| GACCAAUCUGCCCUCAGAGCUCGAGAACAUCUUCGGAUGCAGAGGAGGCAGGCUUCGGUGGCGCGAUAGCGCCAACGUCCUCAACCUCCCAUGCAUCCCACCACAUGAUGAUGCCUUAAGAGCCUUGGUUUUUUG [A90C G117U] | -3.98 |
| GACCAAUCUGCCCUCAGAGCUCGAGAACAUCUUCGGAUGCAGAGGAGGCAGGCUUCGGUGGCGCGAUAGCGCCAACGUCCUCAACCUCCCAUGCAUCCCACCACAAGAUGAUGCCUGAAGAGCCUUGGUUUUUUG [A90C U106A] | -1.42 |
| GACCAAUCUGCCCUCAGAGCUCGAGAACAUCUUCGGAUGCAGAGGAGGCAGGCUUCGGUGGCGCGAUAGCGCCAACGUCCUCAACCUCCCAUGCAUCCCACCACAUGAUGAAGCCUGAAGAGCCUUGGUUUUUUG [A90C U112A] | -1.21 |
| GACCAAUCUGCCCUCAGAGCUCGAGAACAUCUUCGGAUGCAGAGGAGGCAGGCUUCGGUGGCGCGAUAGCGCCAACGUCCUCAACCUCCCAUGCAUCCCACCACAUGAUGAGGCCUGAAGAGCCUUGGUUUUUUG [A90C U112G] | -0.757 |
| GACCAAUCUGCCCUCAGAGCUCGAGAACAUCUUCGGAUGCAGAGGAGGCAGGCUUCGGUGGCGCGAUAGCGCCAACGUCCUCAACCUCCGAUGCGUCCCACCACAUGAUGAUGCCUGAAGAGCCUUGGUUUUGUG [A90G A95G U133G] | -0.0907 |
| GACCAAUCUGCCCUCAGAGCUCGAGAACAUCUUCGGAUGCAGAGGAGGCAGGCUUCGGUGGCGCGAUAGCGCCAACGUCCUCAACCUCCGAUGCAUCCCACCAUAUGAUGAUGCCUGAAGAGCCUUGGUUUUUUG [A90G C104U] | -0.0421 |
